Measurements from US20230039851A1 (ARO BIOTHERAPEUTICS, published 2023).

Assays:
Human Serum Albumin [1] = biological target: T1, Human Serum Albumin (human, UniProt P02768 25-609); assay: ELISA, 667 nM FN3 protein on immobilized human albumin
T1 construct: ELISA: albumin coated on plates; pull-down: endogenous albumin in normal human serum; also called HSA; Human SA
Protocol: (§1) The FN3 proteins were also tested in an ELISA assay to determine their ability to bind to immobilized human or cynomolgous albumin. The binding of 667 nM B7 and B7 variants to human or cynomolgous albumin are illustrated in Table 7. The negative control is wt Tencon.

Cynomolgus Serum Albumin [2] = biological target: T2, Cynomolgus Serum Albumin (cynomolgus monkey, UniProt A2V9Z4 25-608); assay: ELISA, 667 nM FN3 protein on immobilized cynomolgus albumin
T2 construct: ELISA: albumin coated on plates; pull-down: endogenous albumin in cynomolgus serum; also called cSA; Cyno SA
Protocol: as §1

Human Serum Albumin [3] = biological target: T1, Human Serum Albumin; assay: pull-down of endogenous albumin from human serum
Cynomolgus Serum Albumin [4] = biological target: T2, Cynomolgus Serum Albumin; assay: pull-down of endogenous albumin from cynomolgus serum
Cynomolgus Serum Albumin [5] = biological target: T2, Cynomolgus Serum Albumin; assay: ELISA on immobilized cynomolgus albumin
Protocol: as §1

Human Serum Albumin [6] = biological target: T1, Human Serum Albumin; assay: ELISA on immobilized human albumin
Protocol: as §1

T1 sequence (P02768 25-609 limits assumed): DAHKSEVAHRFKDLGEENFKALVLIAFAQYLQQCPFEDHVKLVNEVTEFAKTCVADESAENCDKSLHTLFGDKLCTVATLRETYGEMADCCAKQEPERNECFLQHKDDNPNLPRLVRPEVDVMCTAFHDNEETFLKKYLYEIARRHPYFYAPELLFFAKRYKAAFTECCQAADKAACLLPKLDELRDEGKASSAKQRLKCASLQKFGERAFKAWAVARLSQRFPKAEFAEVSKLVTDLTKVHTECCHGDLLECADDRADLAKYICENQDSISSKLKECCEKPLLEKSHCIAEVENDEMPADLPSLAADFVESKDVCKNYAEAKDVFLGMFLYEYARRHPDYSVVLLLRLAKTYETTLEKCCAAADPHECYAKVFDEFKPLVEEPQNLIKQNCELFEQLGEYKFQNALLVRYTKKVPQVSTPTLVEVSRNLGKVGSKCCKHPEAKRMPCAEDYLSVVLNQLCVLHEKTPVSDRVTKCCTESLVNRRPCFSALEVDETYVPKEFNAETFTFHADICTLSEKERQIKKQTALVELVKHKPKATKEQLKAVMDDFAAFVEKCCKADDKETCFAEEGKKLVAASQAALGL
T2 sequence (A2V9Z4 25-608 limits assumed): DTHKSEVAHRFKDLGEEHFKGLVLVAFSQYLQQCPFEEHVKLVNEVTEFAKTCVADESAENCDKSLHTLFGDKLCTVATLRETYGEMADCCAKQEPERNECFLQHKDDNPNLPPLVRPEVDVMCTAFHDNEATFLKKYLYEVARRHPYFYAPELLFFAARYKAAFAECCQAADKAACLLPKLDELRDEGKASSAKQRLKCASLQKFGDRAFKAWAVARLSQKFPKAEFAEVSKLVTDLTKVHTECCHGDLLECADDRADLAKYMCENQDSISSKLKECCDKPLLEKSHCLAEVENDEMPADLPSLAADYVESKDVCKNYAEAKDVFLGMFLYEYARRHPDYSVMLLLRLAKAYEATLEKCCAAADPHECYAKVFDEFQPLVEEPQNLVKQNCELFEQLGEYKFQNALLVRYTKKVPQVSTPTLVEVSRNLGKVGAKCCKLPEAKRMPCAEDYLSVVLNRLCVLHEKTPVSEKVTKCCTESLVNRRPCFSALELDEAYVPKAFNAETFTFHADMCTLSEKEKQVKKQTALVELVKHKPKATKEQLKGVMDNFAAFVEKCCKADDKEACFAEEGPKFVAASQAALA

Binder	Human Albumin (RLU) (Human Serum Albumin [1])	Cyno Albumin (RLU) (Cynomolgus Serum Albumin [2])	binding result (Human Serum Albumin [3])	binding result (Cynomolgus Serum Albumin [4])	binding result (Cynomolgus Serum Albumin [5])	binding result (Human Serum Albumin [6])
A10V (designed binder, Variant of B7; also called B7 A10V; not shown: His tag: FN3 domains were purified as His-tagged proteins) MLPAPKNLVVSRVTEDSARLSWTAPDAAFDSFNIAYWEPGIGGEAIWLRVPGSERSYDLTGLKPGTEYKVWIHGVKGGASSPPLIARFTT	23100 RLU	43600 RLU				
A10V, A35S (designed binder, Variant of B7; not shown: His tag: FN3 domains were purified as His-tagged proteins) MLPAPKNLVVSRVTEDSARLSWTAPDAAFDSFNISYWEPGIGGEAIWLRVPGSERSYDLTGLKPGTEYKVWIHGVKGGASSPPLIARFTT	2950 RLU	2950 RLU				
A10V, A79S (designed binder, Variant of B7; not shown: His tag: FN3 domains were purified as His-tagged proteins) MLPAPKNLVVSRVTEDSARLSWTAPDAAFDSFNIAYWEPGIGGEAIWLRVPGSERSYDLTGLKPGTEYKVWIHGVKGGSSSPPLIARFTT	250 RLU	9200 RLU	no binding			
A10V, G40A (designed binder, Variant of B7; not shown: His tag: FN3 domains were purified as His-tagged proteins) MLPAPKNLVVSRVTEDSARLSWTAPDAAFDSFNIAYWEPAIGGEAIWLRVPGSERSYDLTGLKPGTEYKVWIHGVKGGASSPPLIARFTT	69800 RLU	64400 RLU				
A10V, G42A (designed binder, Variant of B7; not shown: His tag: FN3 domains were purified as His-tagged proteins) MLPAPKNLVVSRVTEDSARLSWTAPDAAFDSFNIAYWEPGIAGEAIWLRVPGSERSYDLTGLKPGTEYKVWIHGVKGGASSPPLIARFTT	4480 RLU	9180 RLU				
A10V, H73A (designed binder, Variant of B7; not shown: His tag: FN3 domains were purified as His-tagged proteins) MLPAPKNLVVSRVTEDSARLSWTAPDAAFDSFNIAYWEPGIGGEAIWLRVPGSERSYDLTGLKPGTEYKVWIAGVKGGASSPPLIARFTT	550 RLU	600 RLU	no binding	no binding		
A10V, I41A (designed binder, Variant of B7; not shown: His tag: FN3 domains were purified as His-tagged proteins) MLPAPKNLVVSRVTEDSARLSWTAPDAAFDSFNIAYWEPGAGGEAIWLRVPGSERSYDLTGLKPGTEYKVWIHGVKGGASSPPLIARFTT	50600 RLU	46200 RLU				
A10V, I85A (designed binder, Variant of B7; not shown: His tag: FN3 domains were purified as His-tagged proteins) MLPAPKNLVVSRVTEDSARLSWTAPDAAFDSFNIAYWEPGIGGEAIWLRVPGSERSYDLTGLKPGTEYKVWIHGVKGGASSPPLAARFTT	1000 RLU	2500 RLU	no binding	no binding		
A10V, K69A (designed binder, Variant of B7; not shown: His tag: FN3 domains were purified as His-tagged proteins) MLPAPKNLVVSRVTEDSARLSWTAPDAAFDSFNIAYWEPGIGGEAIWLRVPGSERSYDLTGLKPGTEYAVWIHGVKGGASSPPLIARFTT	15900 RLU	42300 RLU				
A10V, N33A (designed binder, Variant of B7; not shown: His tag: FN3 domains were purified as His-tagged proteins) MLPAPKNLVVSRVTEDSARLSWTAPDAAFDSFAIAYWEPGIGGEAIWLRVPGSERSYDLTGLKPGTEYKVWIHGVKGGASSPPLIARFTT	2350 RLU	1500 RLU	no binding	no binding		
A10V, P39A (designed binder, Variant of B7; not shown: His tag: FN3 domains were purified as His-tagged proteins) MLPAPKNLVVSRVTEDSARLSWTAPDAAFDSFNIAYWEAGIGGEAIWLRVPGSERSYDLTGLKPGTEYKVWIHGVKGGASSPPLIARFTT	107000 RLU	73600 RLU				
A10V, P82A (designed binder, Variant of B7; not shown: His tag: FN3 domains were purified as His-tagged proteins) MLPAPKNLVVSRVTEDSARLSWTAPDAAFDSFNIAYWEPGIGGEAIWLRVPGSERSYDLTGLKPGTEYKVWIHGVKGGASSAPLIARFTT	21700 RLU	24100 RLU				
A10V, R49A (designed binder, Variant of B7; not shown: His tag: FN3 domains were purified as His-tagged proteins) MLPAPKNLVVSRVTEDSARLSWTAPDAAFDSFNIAYWEPGIGGEAIWLAVPGSERSYDLTGLKPGTEYKVWIHGVKGGASSPPLIARFTT	1020 RLU	1150 RLU				
A10V, R87A (designed binder, Variant of B7; not shown: His tag: FN3 domains were purified as His-tagged proteins) MLPAPKNLVVSRVTEDSARLSWTAPDAAFDSFNIAYWEPGIGGEAIWLRVPGSERSYDLTGLKPGTEYKVWIHGVKGGASSPPLIAAFTT	47400 RLU	66300 RLU				
A10V, S80A (designed binder, Variant of B7; not shown: His tag: FN3 domains were purified as His-tagged proteins) MLPAPKNLVVSRVTEDSARLSWTAPDAAFDSFNIAYWEPGIGGEAIWLRVPGSERSYDLTGLKPGTEYKVWIHGVKGGAASPPLIARFTT	2950 RLU	2950 RLU				
A10V, W37A (designed binder, Variant of B7; not shown: His tag: FN3 domains were purified as His-tagged proteins) MLPAPKNLVVSRVTEDSARLSWTAPDAAFDSFNIAYAEPGIGGEAIWLRVPGSERSYDLTGLKPGTEYKVWIHGVKGGASSPPLIARFTT	600 RLU	500 RLU	no binding	no binding		
A10V, W47A (designed binder, Variant of B7; not shown: His tag: FN3 domains were purified as His-tagged proteins) MLPAPKNLVVSRVTEDSARLSWTAPDAAFDSFNIAYWEPGIGGEAIALRVPGSERSYDLTGLKPGTEYKVWIHGVKGGASSPPLIARFTT	2100 RLU	2000 RLU	no binding	no binding		
A10V, W71A (designed binder, Variant of B7; not shown: His tag: FN3 domains were purified as His-tagged proteins) MLPAPKNLVVSRVTEDSARLSWTAPDAAFDSFNIAYWEPGIGGEAIWLRVPGSERSYDLTGLKPGTEYKVAIHGVKGGASSPPLIARFTT	950 RLU	1600 RLU	no binding	no binding		
B7 (designed binder, FN3 domain (Tencon27-based library clone) expressed in E. coli; also called ALB40; not shown: His tag: FN3 domains were purified as His-tagged proteins) MLPAPKNLVASRVTEDSARLSWTAPDAAFDSFNIAYWEPGIGGEAIWLRVPGSERSYDLTGLKPGTEYKVWIHGVKGGASSPPLIARFTT	97400 RLU	145000 RLU				
wt Tencon (designed binder, also called wild type tencon) LPAPKNLVVSEVTEDSLRLSWTAPDAAFDSFLIQYQESEKVGEAINLTVPGSERSYDLTGLKPGTEYTVSIYGVKGGHRSNPLSAEFTT	8350 RLU	775 RLU			no binding (tested: 667 nM)	no binding (tested: 667 nM)
